Results reported in patent US20250136718A1 (MABWELL THERAPEUTICS, published 2025).

T1: TMPRSS6 expressed in transfected HepG2 cells (HAMP-luciferase reporter assay) (UniProt Q8IU80 1-811, limits assumed)
T1 sequence (looked up): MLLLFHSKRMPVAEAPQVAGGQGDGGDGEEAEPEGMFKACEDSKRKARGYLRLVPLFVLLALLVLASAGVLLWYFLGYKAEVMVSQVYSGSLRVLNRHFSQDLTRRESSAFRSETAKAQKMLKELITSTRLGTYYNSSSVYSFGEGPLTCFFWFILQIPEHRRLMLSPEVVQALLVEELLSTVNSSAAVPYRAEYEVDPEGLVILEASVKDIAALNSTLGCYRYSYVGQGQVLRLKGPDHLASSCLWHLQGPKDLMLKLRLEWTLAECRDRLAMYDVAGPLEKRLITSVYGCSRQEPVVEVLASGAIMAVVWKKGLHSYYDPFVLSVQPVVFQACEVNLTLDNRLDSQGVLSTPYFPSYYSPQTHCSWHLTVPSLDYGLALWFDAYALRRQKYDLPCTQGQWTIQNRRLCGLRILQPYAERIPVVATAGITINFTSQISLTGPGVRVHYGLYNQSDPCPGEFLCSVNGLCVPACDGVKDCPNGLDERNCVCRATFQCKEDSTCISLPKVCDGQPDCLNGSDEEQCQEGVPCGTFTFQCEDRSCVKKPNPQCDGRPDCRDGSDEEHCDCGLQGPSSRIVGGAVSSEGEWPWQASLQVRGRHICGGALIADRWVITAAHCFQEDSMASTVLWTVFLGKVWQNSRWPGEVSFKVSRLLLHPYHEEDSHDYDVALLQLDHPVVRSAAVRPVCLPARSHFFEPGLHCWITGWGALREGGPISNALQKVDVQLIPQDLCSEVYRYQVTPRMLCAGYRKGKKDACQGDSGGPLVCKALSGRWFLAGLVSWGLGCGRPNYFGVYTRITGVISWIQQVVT

T2: matriptase (ST14) over-expressed in HEK293T cells (human, UniProt Q9Y5Y6 1-855)
T2 construct: also called matriptase-1
T2 sequence: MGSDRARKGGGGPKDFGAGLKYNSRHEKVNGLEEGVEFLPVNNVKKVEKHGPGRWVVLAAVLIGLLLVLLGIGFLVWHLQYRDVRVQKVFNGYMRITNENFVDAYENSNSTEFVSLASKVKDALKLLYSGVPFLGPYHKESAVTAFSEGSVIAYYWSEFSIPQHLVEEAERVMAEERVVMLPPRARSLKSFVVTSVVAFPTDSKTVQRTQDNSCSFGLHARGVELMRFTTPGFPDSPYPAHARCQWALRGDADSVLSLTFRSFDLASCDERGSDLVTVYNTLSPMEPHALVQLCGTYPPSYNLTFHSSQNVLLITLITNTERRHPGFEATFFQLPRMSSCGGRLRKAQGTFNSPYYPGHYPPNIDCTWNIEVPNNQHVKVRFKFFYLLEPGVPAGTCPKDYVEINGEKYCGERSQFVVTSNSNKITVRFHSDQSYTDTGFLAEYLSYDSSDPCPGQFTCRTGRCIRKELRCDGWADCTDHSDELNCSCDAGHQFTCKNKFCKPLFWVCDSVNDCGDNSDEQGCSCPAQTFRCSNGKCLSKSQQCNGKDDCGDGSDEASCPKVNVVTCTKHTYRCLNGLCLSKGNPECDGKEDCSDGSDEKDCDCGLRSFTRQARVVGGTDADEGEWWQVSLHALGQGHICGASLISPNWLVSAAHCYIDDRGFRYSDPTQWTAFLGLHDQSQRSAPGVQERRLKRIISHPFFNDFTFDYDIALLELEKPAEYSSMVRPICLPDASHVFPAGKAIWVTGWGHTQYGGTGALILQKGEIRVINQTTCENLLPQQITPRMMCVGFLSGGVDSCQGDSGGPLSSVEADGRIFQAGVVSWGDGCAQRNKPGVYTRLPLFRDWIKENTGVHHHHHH


Legend:
[1] = target: T1, TMPRSS6 expressed in transfected HepG2 …; test: cell-based or functional assay
[2] = target: T2, matriptase (ST14) over-expressed in …; test: FACS on permeabilized HEK293T cells over-expressing matriptase (ST14)
Text: To determine if anti-TMPRSS6 antibodies bind to homologous matriptases, HEK293T cells over-expressing matriptase (ST14) (SEQ ID NO: 100) (FIGS. 5B, 5E, 5H, 5K, 5N, 5Q), and HEK293T cells over-expressing matriptase-3 (TMPRSS7) (SEQ ID NO: 101) (FIGS. 5C, 5F, 5I, 5L, 5O, 5R) were collected (generated in house). HEK293T cells stably expressing human TMPRSS6 (matriptase-2) (SEQ ID NO: 97) (generated by LakePharma Inc as described above, FIGS. 5A, 5D, 5G, 5J, 5M, 5P) were used as a positive control and HEK293T cells (FIGS. 5A-5R) were used as a negative control (as described above). Cells were blocked and permeabilized with dPBS+3% BSA+0.1% Tween-20 before incubation with various anti-TMPRSS6 antibodies diluted in dPBS+3% BSA+0.1% Tween-20. Cells were incubated with anti-TMPRSS6 antibodies and their humanized variants at a concentration of roughly 1 μg/ml for 1 hr. After incubation, cells were washed with dPBS and incubated with goat anti-mouse IgG conjugated with AlexaFluor-488 (Invitrogen, FIGS. 5A-5I) or goat anti-human IgG conjugated with Allophycocyanin (APC) (Jackson Immuno Research, FIGS. 5J-5R) as a 2° antibody. At last, cells were washed with dPBS and re-suspended with dPBS+1 mM EDTA, and then subjected to FACS analysis using a NOVOCYTE® Flow Cytometer. Bound antibody was determined by excitation at 488 nm and measurement of emission (FITC-A) at 530 nm (FIGS. 5A-5I) or by excitation at 640 nm and measurement of emission (APC-A) at 675 nm (FIGS. 5J-5R). Results for these assays are shown in histogram plots in FIGS. 5A-5R.

Binder | EC50 of the increase of HAMP promoter activity (HAMP-luciferase reporter assay, HepG2 cells expressing TMPRSS6, hBMP6) [1] [µg/mL] | binding result [2]
MWTx-003 anti-TMPRSS6 monoclonal antibody (antibody, mouse IgG2b, kappa, V domains shown, Mouse monoclonal antibody from hybridoma (ATCC PTA-126761); The recombinant version r4K12B has the same HC and LC; also called r4K12B; recombinant MWTx-003) VH: EVQLQQSGAELVKPGASVKLSCTASGFNIEDYYIHWVKERTEQGLEWIGRIDPEDGETTYAPQFQGKATIIPDTSSNTAYMQLSSLTSEDAAVYYCARSIYLDPMDYWGQGTSVTVSS VL: DIVMTQSHKFMSTSVGDRVSITCKASQDVTTAVAWYQQKPGQSPKILIYWATTRHTGVPDRFTGSISGTTYILTISSVQAEDLALYYCQQHYSTPYTFGGGTKLEIKR | 2 | no binding (tested: roughly 1 µg/ml)
humanized anti-TMPRSS6 antibody variant hzMWTx-001 Var (antibody, human IgG1, kappa, N297A, V domains shown, Human IgG1 / kappa) VH: EVQLVQSGAEVKKPGASVKVSCKASGYTFTSYWITWVRQAPGQRLEWIGNIYPGSGSTYYNEKFKSKATITRDTSSRTAYMELSSLRSEDTAVYYCAPYDADYAMDYWGQGTLVTVSS VL: DIQMTQSPSSLSASVGDRVTITCKASQDISNYLSWFQQKPGKAPKLLIYRANRLVEGVPSRFSGSGSGTDFTLTISSLQPEDFATYFCLQYDEFPLTFGGGTKVEIKR | 0.8 | no binding (tested: roughly 1 µg/ml)
MWTx-002 anti-TMPRSS6 monoclonal antibody (antibody, mouse IgG2b, kappa, V domains shown, Mouse monoclonal antibody from hybridoma (ATCC PTA-126760)) VH: EVQLQQSGAELVKPGASVKLSCTASGFNIKDYYIHWVKERTEQGLEWFGRIDPEDGESEYAPKFQGKATLTADTSSNTAYLQLSSLTSEDTAVYYCTRGDSMMVTYFDYWGQGTTLTVSS VL: DIVMTQSHKFMSTSVGDRVSITCKASQDVSTAVAWYQQKPGQSPKLLIYWAFTRHTGVPDRFTSTGSGTDYALTISSVQAEDLALYYCQQHYRSPWTFGGGTKLEIKR | 1 | no binding (tested: roughly 1 µg/ml)
humanized anti-TMPRSS6 antibody variant hzMWTx-002 Var (antibody, human IgG1, kappa, N297A, V domains shown, Human IgG1 / kappa) VH: EVQLVQSGAEVKKPGASVKVSCKASGFNIKDYYIHWVRQATGQGLEWMGRIDPEDAESEYAPKFQGRVTITADTSTDTAYMELSSLRSEDTAVYYCTRGDSMMVTYFDYWGQGTLVTVSS VL: DIQMTQSPSSLSASVGDRVTITCKASQDVSTAVAWYQQKPGKAPKLLIYWAFTRHTGVPSRFSGSGSGTDYALTISSLQPEDFATYYCQQHYRSPWTFGGGTKVEIKR | 0.3 | no binding (tested: roughly 1 µg/ml)
MWTx-001 anti-TMPRSS6 monoclonal antibody (antibody, mouse IgG2a, kappa, V domains shown, Mouse monoclonal antibody from hybridoma (ATCC PTA-126759)) VH: QVQLQQPGAELAKPGASVKMSCKASGYTFTSYWITWVKQRPGQDLEWIGNIYPGSGSTYYNEKFKSKATLTVDTSSRTAYMQLSSLTSADSAVYYCAPYDSDYAMDYWGQGTSVTVSS VL: DIKMTQSPSSMYASLGERVTITCKASQDINNYLSWFQQKPGKSPKTLIYRANRLVDGVPSRVSGSGSGQDYSLTISSLEYEDVGIYFCLQYDEFPLTFGAGTKLELKR | 3 | no binding (tested: roughly 1 µg/ml)
humanized anti-TMPRSS6 antibody variant hzMWTx-003 Var (antibody, human IgG1, kappa, L234A L235A, V domains shown, Human IgG1 / kappa) VH: QVQLVQSGAEVKKPGASVKVSCKASGFNIEDYYMHWVRQAPGQRLEWMGRIDPEDAETTYSPKFQGRVTIIPDTSANTAYMELSSLRSEDTAVYYCARSIYLDPMDYWGQGTLVTVSS VL: DIQMTQSPKSLSASVGDRVTITCRASQDVTTALAWYQQKPGQSPKLLIYWATTRHSGVPSRFSGSGSGTDFTLTISSLQPEDFATYYCQQHYSTPYTFGQGTKLEIKR | 0.3 | no binding (tested: roughly 1 µg/ml)
